# B1: CPEB3 Ribozyme (parent)
# chain: UAACAGGGGGCCACAGCAGAAGCGUUCACGUCGCAGCCCCUGUCAGAUUCUGGUGAAUCUGCGAAUUCUGCUGUAUAUCUC
# Variants of: B1
# Experiment: self-cleavage, relative activity (ratio to wild type); higher = more cleavage; in vitro, sequencing
# Outline: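 Libraries of CPEB3 self-cleaving ribozyme mutants came from rounds of error-prone PCR and carried barcodes, which DNA sequencing matched to variants. In vitro transcription used T7 RNA polymerase at 37°C for 5 hours, with a further 15 min in DNase I before EDTA stopped the reaction; the ribozymes cleaved during both steps. The RNA was reverse transcribed with template switching and sequenced on Illumina. Relative activity is the cleaved/total read fraction of a variant divided by that of the unmutated ribozyme, averaged over three batches with at least 5 reads.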
row,Variant,self-cleavage
1,A13G A57G,0.72
2,A13C U51C,1.11
3,A13C U51A,1.01
4,A13C U51G,0.88
5,C12U A13G,0.74
6,C12U A13C,1.16
7,C12U A13U,1.15
8,C12G C27U,0.18
9,C12G C27A,0.09
10,C12A U58C,0.54
11,A13C G30U,0.12
12,A13C G30A,0.25
13,C12U A35C,0.85
14,C12U A35G,1.15
15,C12U A35U,1.06
16,C12A G19A,0.43
17,C12A A64G,1.21
18,C12A A64U,0.56
19,C12A G46U,0.38
20,A13G C38U,0.83
21,A13G C38G,0.28
22,A13G C38A,0.13
23,A13C G70A,0.44
24,A13G A18U,0.27

row,Variant,self-cleavage
1,A13G A18G,0.39
2,C12G C50G,0.28
3,A13G A65G,0.41
4,A13G A65U,0.31
5,A13G A65C,0.56
6,A13C C79U,1.11
7,A13C C29G,0.3
8,C12A U48G,0.2
9,C12U A56G,1.13
10,C12A A47G,1.17
11,A13C G73C,0.48
12,C12A U49C,0.63
13,C12U C23U,0.52
14,C12G G52A,0.49
15,A13C,0.96
16,A13G,0.94
17,A13C G46C,0.18
18,C12A G52A,1.23
19,A13C U48C,0.68
20,C12G A15G,0.1
21,C12U U49C,1.01
22,A13C C14G,0.56
23,C12A C17G,0.16
24,C12A U78C,1.04

row,Variant,self-cleavage
1,C12A U78A,1.21
2,A13G A35U,0.48
3,A13G A35C,0.56
4,A13G A35G,0.92
5,A13C A77G,1.12
6,C12U A57G,1.26
7,C12U A75G,1.3
8,C12U A75U,1.28
9,A13C U74C,1.18
10,C12A C62A,0.71
11,C12A C62G,0.24
12,A13C C50A,0.87
13,C12U A20G,1.19
14,C12U A20U,0.38
15,C12U G46A,0.68
16,C12G U48G,0.35
17,A13G C40U,0.76
18,A13G C40G,0.23
19,A13G C40A,0.21
20,C12U U41G,0.28
21,C12U U41A,0.24
22,C12U U41C,1.31
23,A13C U78A,1
24,A13C U78C,1.02

row,Variant,self-cleavage
1,A13G A75C,1.03
2,A13G A75U,0.99
3,A13G A75G,1.03
4,C12A U67A,0.69
5,C12A U67C,0.33
6,C12U A65U,0.42
7,C12U A65G,1.07
8,C12U U60A,1.04
9,C12U U60G,0.46
10,C12U U60C,0.95
11,C12A A57G,1.06
12,C12A U80C,1.23
13,A13G C44U,0.32
14,A13G C44A,0.24
15,C12A G24U,0.33
16,C12G U67C,0.08
17,C12G U67G,0.12
18,C12G U67A,0.23
19,A13C C40A,0.26
20,C12G U69A,0.3
21,C12G U69C,0.11
22,C12G U43C,0.38
23,C12U C81U,1.22
24,C12U A45G,1.25

row,Variant,self-cleavage
1,C12U A45U,0.83
2,C12U A45C,0.64
3,A13C U31C,0.66
4,A13C U31A,0.38
5,A13G C29U,0.33
6,A13G C29G,0.11
7,A13G C29A,0.3
8,A13G C37U,0.53
9,A13G C37A,0.18
10,C12U C34A,0.68
11,C12U C17U,1.13
12,A13C A35G,1.22
13,A13C A35U,0.42
14,C12U A64U,0.83
15,C12U A64G,1.41
16,A13C A64G,0.93
17,A13C A64U,0.4
18,C12U C71U,0.58
19,A13C U66C,0.33
20,A13C C71U,0.33
21,A13C G63U,0.97
22,A13C U49C,0.42
23,A13C A20G,0.72
24,C12G C29G,0.24

row,Variant,self-cleavage
1,C12G U25C,0.14
2,C12U C39U,1.26
3,C12G U49C,0.16
4,C12U U72C,1.24
5,C12U U72A,1.1
6,C12U G63C,1.26
7,C12U G63A,1.39
8,C12A U25C,0.42
9,A13C U72C,0.83
10,A13C U72A,0.24
11,C12U U66C,0.71
12,C12G A28U,0.26
13,A13G C23U,0.36
14,A13G C23G,0.46
15,A13C U69A,0.31
16,A13C U69C,0.52
17,C12A U51A,1.06
18,C12G U76C,0.66
19,C12G A57G,0.41
20,C12U A77C,1.03
21,C12U A77G,1.19
22,A13C G36A,0.26
23,A13C G36C,0.35
24,A13C U43C,0.62

row,Variant,self-cleavage
1,A13G A45G,0.67
2,A13G A45C,0.34
3,A13G A45U,0.4
4,A13C U76C,0.75
5,A13C U76A,1.18
6,A13G C17U,0.51
7,A13G C17A,0.38
8,A13G C17G,0.13
9,C12A U43A,0.99
10,C12A C68G,0.52
11,C12U U54G,1.01
12,C12U U54C,1.27
13,C12U A18U,0.62
14,C12U A18G,0.95
15,C12G G30A,0.29
16,C12U A28G,0.89
17,C12U A28C,0.94
18,C12U A28U,1.12
19,C12U A15U,1.23
20,C12U A15G,0.86
21,A13G C39U,1
22,A13G C39G,0.27
23,A13G C39A,0.28

# — the RNAGym collection of RNA variant scans (doi:10.1093/nar/gkz1192)
